Measured values reported in patent publication EP2193147B1.

What was measured:
human ferritin (human) = human ferritin (human) (UniProt P02794); assay: method not stated
[1] = target: ferritin of fixed and permeabilized CAPAN-1 cells (human) (UniProt P02794); assay: 111In-labelled antibody on fixed and permeabilized CAPAN-1 cells, Lindmo linear extrapolation
[2] = target: human liver ferritin, Calbiochem (human) (UniProt P02794); assay: solid-phase RIA, 111In-labelled antibody, ferritin immobilised at 5 ug/ml on tubes
[3] = target: human liver ferritin, Calbiochem (human) (UniProt P02794); assay: solid-phase RIA, 90Y-labelled antibody, ferritin immobilised at 5 ug/ml on tubes

Chain of human liver ferritin, Calbiochem (human) (P02794 2-183 limits assumed, chain 1 of 2): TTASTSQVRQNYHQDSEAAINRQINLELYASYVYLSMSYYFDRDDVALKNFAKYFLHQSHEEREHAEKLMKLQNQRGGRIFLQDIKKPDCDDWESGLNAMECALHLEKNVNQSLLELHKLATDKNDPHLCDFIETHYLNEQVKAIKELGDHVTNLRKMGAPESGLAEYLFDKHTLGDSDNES
Chain of human liver ferritin, Calbiochem (human) (P02792 2-175 limits assumed, chain 2 of 2, further chain): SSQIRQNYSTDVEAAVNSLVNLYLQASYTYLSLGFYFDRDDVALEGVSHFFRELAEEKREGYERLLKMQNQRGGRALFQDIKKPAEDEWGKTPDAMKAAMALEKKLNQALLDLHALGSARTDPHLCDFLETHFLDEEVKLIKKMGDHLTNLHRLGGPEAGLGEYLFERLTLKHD
Chain of ferritin of fixed and permeabilized CAPAN-1 cells (human) (P02794 whole entry, chain 1 of 2): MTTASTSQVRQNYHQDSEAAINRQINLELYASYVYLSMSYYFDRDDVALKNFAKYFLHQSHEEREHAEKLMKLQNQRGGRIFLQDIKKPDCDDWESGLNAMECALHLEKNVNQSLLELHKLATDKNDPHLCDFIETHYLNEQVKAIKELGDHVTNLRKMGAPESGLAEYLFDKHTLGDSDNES
Chain of ferritin of fixed and permeabilized CAPAN-1 cells (human) (P02792 2-175, chain 2 of 2, further chain): as the sequence (P02792 2-175 limits assumed, chain 2 of 2, further chain) above
Chain of human ferritin (human) (P02794 2-183 limits assumed, chain 1 of 2): as the sequence (P02794 2-183 limits assumed, chain 1 of 2) above
Chain of human ferritin (human) (P02792 2-175 limits assumed, chain 2 of 2, further chain): as the sequence (P02792 2-175 limits assumed, chain 2 of 2, further chain) above

| Binder | Kd (human ferritin (human)) [nM] | immunoreactive fraction [1] [%] | percentage of bound antibody [2] [%] | percentage of bound antibody [3] [%] |
| --- | --- | --- | --- | --- |
| AMB8LK monoclonal IgG1 anti-ferritin antibody (murine, unconjugated) (antibody, from another filing, V domains shown) VH: QVQLKESGPGLVAPSQSLSITCTVSGFSLSRYSVHWVRQPPGKGLEWLGTIWGGGSTDYNSVLKSRLSISKDNSKSQVLLKVNSLQTDDTAIYYCASGPYYYTMDYWGQGTSVTVSS VL: QIVLTQSPAILSASLGEEITLTCSASSSVTFMHWYQQKSGTSPKLLIYTTSNLASGVPSRFSGSGSGTFYSLTISSVEAEDAADYYCHQWSSYPTFGSGTKLEIKR | 5.1 |  |  |  |
| Bz-DTPA-AMB8LK (antibody, from another filing, V domains shown) VH: QVQLKESGPGLVAPSQSLSITCTVSGFSLSRYSVHWVRQPPGKGLEWLGTIWGGGSTDYNSVLKSRLSISKDNSKSQVLLKVNSLQTDDTAIYYCASGPYYYTMDYWGQGTSVTVSS VL: QIVLTQSPAILSASLGEEITLTCSASSSVTFMHWYQQKSGTSPKLLIYTTSNLASGVPSRFSGSGSGTFYSLTISSVEAEDAADYYCHQWSSYPTFGSGTKLEIKR |  | 52 | 87 | 100 |
| Bz-CHX-A"-DTPA-AMB8LK (antibody, from another filing, V domains shown) VH: QVQLKESGPGLVAPSQSLSITCTVSGFSLSRYSVHWVRQPPGKGLEWLGTIWGGGSTDYNSVLKSRLSISKDNSKSQVLLKVNSLQTDDTAIYYCASGPYYYTMDYWGQGTSVTVSS VL: QIVLTQSPAILSASLGEEITLTCSASSSVTFMHWYQQKSGTSPKLLIYTTSNLASGVPSRFSGSGSGTFYSLTISSVEAEDAADYYCHQWSSYPTFGSGTKLEIKR |  | 43 | 74.8 | 98.9 |
| Bz-DOTA-AMB8LK (antibody, from another filing, V domains shown) VH: QVQLKESGPGLVAPSQSLSITCTVSGFSLSRYSVHWVRQPPGKGLEWLGTIWGGGSTDYNSVLKSRLSISKDNSKSQVLLKVNSLQTDDTAIYYCASGPYYYTMDYWGQGTSVTVSS VL: QIVLTQSPAILSASLGEEITLTCSASSSVTFMHWYQQKSGTSPKLLIYTTSNLASGVPSRFSGSGSGTFYSLTISSVEAEDAADYYCHQWSSYPTFGSGTKLEIKR |  | 24 | 76.8 | 73.2 |
